# Data reported in publication PMC5566211.
# How the values were obtained:
# Assay in all cases: purified protein
# Details in all cases: phosphate-buffered saline 50 mM, pH 7.0, 37 °C
# [1] = test system: CC(=O)OCC1=C(C(=O)O)N2C(=O)[C@@H](NC(=O)Cc3cccs3)[C@H]2SC1
# [2] = test system: CC(C)(O/N=C(\C(=O)N[C@@H]1C(=O)N2C(C(=O)[O-])=C(C[n+]3ccccc3)CS[C@H]12)c1csc(N)n1)C(=O)O
# [3] = test system: CC1=C(C(=O)O)N2C(=O)[C@@H](NC(=O)[C@H](N)C3=CCC=CC3)[C@H]2SC1
# [4] = test system: CCN1CCN(C(=O)N[C@@H](C(=O)N[C@@H]2C(=O)N3C(C(=O)O)=C(CSc4nnnn4C)CS[C@H]23)c2ccc(O)cc2)C(=O)C1=O
# [5] = test system: CO/N=C(\C(=O)N[C@@H]1C(=O)N2C(C(=O)O)=C(COC(C)=O)CS[C@H]12)c1csc(N)n1
# [6] = test system: CO/N=C(\C(=O)N[C@@H]1C(=O)N2C(C(=O)O)=C(CSc3nc(=O)c(=O)[nH]n3C)CS[C@H]12)c1csc(N)n1
# [7] = test system: CO/N=C(\C(=O)N[C@@H]1C(=O)N2C(C(=O)[O-])=C(C[N+]3(C)CCCC3)CS[C@H]12)c1csc(N)n1
# [8] = test system: C[C@@H](O)[C@H]1C(=O)N2C(C(=O)O)=C(S[C@@H]3CN[C@H](C(=O)N(C)C)C3)[C@H](C)[C@H]12
# [9] = test system: C[C@H]1[C@H](NC(=O)/C(=N\OC(C)(C)C(=O)O)c2csc(N)n2)C(=O)N1S(=O)(=O)O
# [10] = test system: Cc1nnc(SCC2=C(C(=O)O)N3C(=O)[C@@H](NC(=O)Cn4cnnn4)[C@H]3SC2)s1
# [11] = test system: Cc1onc(-c2ccccc2)c1C(=O)N[C@@H]1C(=O)N2[C@@H]1SC(C)(C)[C@@H]2C(=O)O
substance,measurement,setting,value
PAD-1 (Paramesorhizobium deserti),Km,[1],91.59 µM
same,kcat,[1],15.2 s⁻¹
same,kcat/Km,[1],166000 M⁻¹ s⁻¹
same,Km,[2],110.04 µM
same,kcat,[2],12.1 s⁻¹
same,kcat/Km,[2],110000 M⁻¹ s⁻¹
same,Km,[3],347.9 µM
same,kcat,[3],31.8 s⁻¹
same,kcat/Km,[3],91300 M⁻¹ s⁻¹
same,Km,[4],47.80 µM
same,kcat,[4],15.1 s⁻¹
same,kcat/Km,[4],315000 M⁻¹ s⁻¹
same,Km,[5],137.08 µM
same,kcat,[5],20.1 s⁻¹
same,kcat/Km,[5],146000 M⁻¹ s⁻¹
same,Km,[6],90.84 µM
same,kcat,[6],16.3 s⁻¹
same,kcat/Km,[6],179000 M⁻¹ s⁻¹
same,Km,[7],108.40 µM
same,kcat,[7],10.4 s⁻¹
same,kcat/Km,[7],95900 M⁻¹ s⁻¹
same,Km,[8],389.69 µM
same,kcat,[8],24.2 s⁻¹
same,kcat/Km,[8],62200 M⁻¹ s⁻¹
same,Km,[9],276.08 µM
same,kcat,[9],39 s⁻¹
same,kcat/Km,[9],141000 M⁻¹ s⁻¹
same,Km,[10],89.16 µM
same,kcat,[10],22.6 s⁻¹
same,kcat/Km,[10],253000 M⁻¹ s⁻¹
same,Km,[11],383.96 µM
same,kcat,[11],58.7 s⁻¹
same,kcat/Km,[11],153000 M⁻¹ s⁻¹
